Consider 2 molecules from patent US20140072613A1 (published 2014).

Common to all, as to test: cell-based or functional assay
Assay [1] deals with T1, EphA3(h) (human, UniProt P29320 566-983, limits assumed).
T1 sequence (looked up): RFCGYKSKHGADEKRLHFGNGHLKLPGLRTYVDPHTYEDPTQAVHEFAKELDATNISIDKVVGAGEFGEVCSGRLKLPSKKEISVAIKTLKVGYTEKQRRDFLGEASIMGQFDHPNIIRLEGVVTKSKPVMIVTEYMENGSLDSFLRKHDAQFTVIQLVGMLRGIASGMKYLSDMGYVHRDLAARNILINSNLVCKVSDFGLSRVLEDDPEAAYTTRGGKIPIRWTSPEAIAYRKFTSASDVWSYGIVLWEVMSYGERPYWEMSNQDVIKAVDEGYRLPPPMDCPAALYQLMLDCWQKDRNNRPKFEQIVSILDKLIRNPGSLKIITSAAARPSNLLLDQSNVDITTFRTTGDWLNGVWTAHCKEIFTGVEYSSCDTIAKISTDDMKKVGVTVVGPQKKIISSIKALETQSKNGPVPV

Assay [2] deals with NEK6(h) (human, UniProt Q9HC98 1-313).
The target of assay [3] is T2, MKK6(h) (human, UniProt P52564 1-334).
T2 sequence (looked up): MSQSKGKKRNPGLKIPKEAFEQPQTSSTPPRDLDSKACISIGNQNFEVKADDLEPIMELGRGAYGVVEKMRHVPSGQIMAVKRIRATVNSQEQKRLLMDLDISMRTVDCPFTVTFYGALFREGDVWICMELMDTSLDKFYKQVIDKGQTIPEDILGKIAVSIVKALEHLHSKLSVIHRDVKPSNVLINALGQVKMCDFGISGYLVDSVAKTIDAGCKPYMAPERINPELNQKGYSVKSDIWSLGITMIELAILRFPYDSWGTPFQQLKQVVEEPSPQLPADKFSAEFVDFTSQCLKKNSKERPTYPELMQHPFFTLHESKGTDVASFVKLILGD

Assay [4] has as its target MLCK(h) (human).
For assay [5], the target named is CDK5/p25(h) (human, UniProt Q00535 1-292; Q15078 99-307).
In assay [6] the target is T3, DCAMKL2(h) (human, UniProt Q8N568 372-714, limits assumed).
T3 sequence (looked up): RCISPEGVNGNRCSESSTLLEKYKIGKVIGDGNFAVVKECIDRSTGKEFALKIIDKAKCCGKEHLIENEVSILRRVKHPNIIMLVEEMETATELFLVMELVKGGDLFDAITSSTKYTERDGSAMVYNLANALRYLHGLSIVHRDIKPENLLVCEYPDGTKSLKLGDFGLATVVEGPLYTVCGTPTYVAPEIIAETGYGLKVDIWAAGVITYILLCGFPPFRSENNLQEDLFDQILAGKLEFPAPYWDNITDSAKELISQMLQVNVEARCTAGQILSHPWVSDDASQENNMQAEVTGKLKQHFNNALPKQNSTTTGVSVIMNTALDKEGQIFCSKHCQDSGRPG

For assay [7], the target named is MAPKAP-K3(h) (human, UniProt Q16644 1-382, limits assumed).
The target of assay [8] is T4, SGK3(h) (human, UniProt Q96BR1 1-496, limits assumed).
T4 sequence (looked up): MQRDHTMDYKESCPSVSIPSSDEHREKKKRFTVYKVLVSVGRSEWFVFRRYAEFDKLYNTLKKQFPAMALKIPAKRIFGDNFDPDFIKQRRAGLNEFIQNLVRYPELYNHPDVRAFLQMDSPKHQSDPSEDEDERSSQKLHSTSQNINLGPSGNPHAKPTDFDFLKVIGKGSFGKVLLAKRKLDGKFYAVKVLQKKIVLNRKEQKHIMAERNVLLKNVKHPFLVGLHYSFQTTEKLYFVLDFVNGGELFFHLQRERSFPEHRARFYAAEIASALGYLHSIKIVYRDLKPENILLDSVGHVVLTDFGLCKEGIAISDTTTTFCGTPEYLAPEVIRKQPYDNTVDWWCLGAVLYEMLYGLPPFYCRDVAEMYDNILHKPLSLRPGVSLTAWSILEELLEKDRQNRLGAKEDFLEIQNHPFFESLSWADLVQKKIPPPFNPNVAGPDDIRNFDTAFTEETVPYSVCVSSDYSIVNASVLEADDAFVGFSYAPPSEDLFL

Assay [9] concerns the target T5, NLK(h) (human, UniProt Q9UBE8 1-527, limits assumed).
T5 sequence (looked up): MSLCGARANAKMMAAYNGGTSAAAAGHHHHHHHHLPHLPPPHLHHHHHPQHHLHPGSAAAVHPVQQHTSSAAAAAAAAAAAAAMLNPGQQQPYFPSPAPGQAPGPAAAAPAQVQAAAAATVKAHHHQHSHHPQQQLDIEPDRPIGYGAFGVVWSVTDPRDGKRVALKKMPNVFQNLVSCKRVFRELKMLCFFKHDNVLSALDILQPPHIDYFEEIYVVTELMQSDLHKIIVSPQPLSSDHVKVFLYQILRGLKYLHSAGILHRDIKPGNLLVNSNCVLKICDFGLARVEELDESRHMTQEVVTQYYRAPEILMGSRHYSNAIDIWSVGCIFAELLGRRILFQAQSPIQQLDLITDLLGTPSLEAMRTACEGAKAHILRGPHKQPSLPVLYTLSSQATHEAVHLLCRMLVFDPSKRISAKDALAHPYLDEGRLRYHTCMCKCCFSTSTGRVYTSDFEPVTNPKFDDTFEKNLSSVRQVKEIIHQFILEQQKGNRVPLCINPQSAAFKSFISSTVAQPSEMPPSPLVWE

Assay [10] has as its target IGF-1R(h) (human, UniProt P08069 959-1367, limits assumed).
For assay [11], the target named is NEK7(h) (human, UniProt Q8TDX7 1-302).
The target in assay [12] is Met(D1246N)(h) (human, UniProt P08581-2 974-1408, limits assumed).
In assay [13] the target is EGFR(h) (human, UniProt P00533 696-1210, limits assumed).

Chain of NEK7(h) (Q8TDX7 whole entry): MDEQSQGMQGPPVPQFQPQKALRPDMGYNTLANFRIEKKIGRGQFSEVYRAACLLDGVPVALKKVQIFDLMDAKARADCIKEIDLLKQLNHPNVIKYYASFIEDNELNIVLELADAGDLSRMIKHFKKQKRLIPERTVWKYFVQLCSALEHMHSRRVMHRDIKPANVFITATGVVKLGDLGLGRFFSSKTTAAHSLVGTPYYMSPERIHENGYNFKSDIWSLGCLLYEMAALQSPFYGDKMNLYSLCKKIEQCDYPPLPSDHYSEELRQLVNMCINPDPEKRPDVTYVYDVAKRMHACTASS
Chain of NEK6(h) (Q9HC98 whole entry): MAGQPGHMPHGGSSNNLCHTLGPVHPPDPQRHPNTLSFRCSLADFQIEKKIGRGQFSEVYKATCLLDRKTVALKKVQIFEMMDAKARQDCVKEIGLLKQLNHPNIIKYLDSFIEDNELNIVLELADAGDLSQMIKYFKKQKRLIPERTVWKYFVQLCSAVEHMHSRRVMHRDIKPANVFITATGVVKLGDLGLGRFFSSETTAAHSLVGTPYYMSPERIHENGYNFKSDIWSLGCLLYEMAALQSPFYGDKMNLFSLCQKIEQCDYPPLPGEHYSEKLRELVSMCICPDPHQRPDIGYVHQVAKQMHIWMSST
Chain of MAPKAP-K3(h) (Q16644 whole entry): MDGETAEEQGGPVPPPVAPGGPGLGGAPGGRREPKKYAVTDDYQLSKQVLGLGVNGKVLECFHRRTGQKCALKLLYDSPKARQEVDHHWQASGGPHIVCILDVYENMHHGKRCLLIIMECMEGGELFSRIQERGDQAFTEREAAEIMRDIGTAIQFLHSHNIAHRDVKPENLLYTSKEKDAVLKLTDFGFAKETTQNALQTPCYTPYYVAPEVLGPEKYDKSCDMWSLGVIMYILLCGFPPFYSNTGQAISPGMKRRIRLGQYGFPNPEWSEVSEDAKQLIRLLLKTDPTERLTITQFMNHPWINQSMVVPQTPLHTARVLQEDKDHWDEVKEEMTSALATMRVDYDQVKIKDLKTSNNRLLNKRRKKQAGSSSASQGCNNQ
Chain of IGF-1R(h) (P08069 959-1367 limits assumed): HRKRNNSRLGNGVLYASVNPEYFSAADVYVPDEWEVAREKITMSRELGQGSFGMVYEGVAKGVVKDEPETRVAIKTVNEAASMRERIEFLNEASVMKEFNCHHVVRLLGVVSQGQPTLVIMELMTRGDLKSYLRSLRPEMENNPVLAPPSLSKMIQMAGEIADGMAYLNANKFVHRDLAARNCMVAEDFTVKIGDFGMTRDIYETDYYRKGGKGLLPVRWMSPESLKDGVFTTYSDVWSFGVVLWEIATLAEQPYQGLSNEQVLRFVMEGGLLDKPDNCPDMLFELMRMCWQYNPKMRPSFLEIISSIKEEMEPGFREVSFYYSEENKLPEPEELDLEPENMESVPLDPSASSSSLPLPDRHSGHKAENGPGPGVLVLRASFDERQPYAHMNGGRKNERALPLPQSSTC

B1: MMI-0400 (peptide)
peptide: KAFAKLAARLYRKALARQLGVAA
Consider B1, for which the “% activity, 100 µM” value in [1] was 12%; in assay [2] it was 85%; in [3] it was 44%; in assay [4], 1%; in assay [5], 192%; in assay [6], 70%. Besides, the “% activity, 100 µM” value was determined as 7% in [7]; 8% in [8]; 90% in [9]; 90% in assay [10]; 87% in assay [11]; 31% in assay [12]. Besides, in assay [13], the “% activity, 100 µM” value is 16%.

B2: MMI-0300 (peptide)
peptide: FAKLAARLYRKALARQLGVAA
As for B2, the “% activity, 100 µM” value in [1] worked out at 6%; in [2] it was 82%; in assay [3] it was 48%; in assay [4], 2%; in assay [5], 89%; in assay [6] it was 81%. The “% activity, 100 µM” value in [7] was determined as 3%; in assay [8], 10%; in [9], 87%; in assay [10], 119%; in assay [11], 84%; in assay [12], 82%. Also, in assay [13], the “% activity, 100 µM” value is 21%.
